The test system of data set [1] is G4-forming KRAS oligo (32R), unlabeled (DNA, G4) AGGGCGGTGTGGGAAGAGGGAAGAGGGGGAGG
In words: UV-Vis absorption titration, Scatchard plot. The settings on record: 50 mM KCl; 10 mM Tris-HCl pH 7.5, 1 mM EDTA, RT; 4 µM TMPyP4, oligo 0-1.8 µM; specific site.

Data set [2] deals with anti-G4 antibody clone 1H6 (mouse). The data set can be described thus: fluorescence polarization. The settings on record: FP: 50 mM Tris-HCl pH 7.5, 50 mM KCl, 1 mM MgCl2, 1 mM DTT, 0.1 mM EDTA, 10 nM oligo, 30 min RT, read at 25 C; Trp quenching: same buffer, 500 nM APE1, 20 C. On the technique in general: Polarisation of emitted light reports the rotation of a fluorescent probe.

Data set [3] concerns the target T1, APE1 WT (human, UniProt P27695 1-318). The data set can be described thus: fluorescence polarization; 50 mM KCl, 1 mM MgCl2; no measurable affinity; FP: 50 mM Tris-HCl pH 7.5, 50 mM KCl, 1 mM MgCl2, 1 mM DTT, 0.1 mM EDTA, 10 nM oligo, 30 min RT, read at 25 C; Trp quenching: same buffer, 500 nM APE1, 20 C. The settings on record: protein: recombinant; label: 5'-6-FAM; no parallel G4 by CD.

For data set [4], the target named is T1, APE1 WT. The data set can be described thus: fluorescence polarization; 50 mM KCl, 1 mM MgCl2; FP: 50 mM Tris-HCl pH 7.5, 50 mM KCl, 1 mM MgCl2, 1 mM DTT, 0.1 mM EDTA, 10 nM oligo, 30 min RT, read at 25 C; Trp quenching: same buffer, 500 nM APE1, 20 C. The settings on record: protein: recombinant; label: 5'-6-FAM; parallel G4 (CD), prefolded in 50 mM KCl.
The target in a further data set is APE1 H309A (human, UniProt P27695 1-318, H309A). The description is as above. The settings on record: protein: recombinant; label: 5'-6-FAM; parallel G4 (CD), prefolded in 50 mM KCl.
Sequence of APE1 H309A (P27695 whole entry H309A): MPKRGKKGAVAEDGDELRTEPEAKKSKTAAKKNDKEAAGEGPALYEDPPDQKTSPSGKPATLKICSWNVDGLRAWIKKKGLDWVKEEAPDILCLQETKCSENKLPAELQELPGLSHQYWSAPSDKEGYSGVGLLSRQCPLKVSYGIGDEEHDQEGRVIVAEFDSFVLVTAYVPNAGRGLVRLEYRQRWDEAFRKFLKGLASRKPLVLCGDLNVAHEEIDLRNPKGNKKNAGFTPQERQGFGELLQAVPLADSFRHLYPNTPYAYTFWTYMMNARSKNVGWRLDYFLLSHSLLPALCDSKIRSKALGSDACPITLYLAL
Another data set concerns the target APE1 NΔ42 (human, UniProt P27695 43-318, del1-42). The data set is described as above. The settings on record: protein: recombinant; label: 5'-6-FAM; parallel G4 (CD), prefolded in 50 mM KCl.
For another data set, the target named is T2, GST-APE1 1-42 (human, UniProt P27695 1-42).
T2 chain: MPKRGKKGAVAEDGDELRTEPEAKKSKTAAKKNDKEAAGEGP
In words: fluorescence polarization; 50 mM KCl, 1 mM MgCl2; no measurable affinity; FP: 50 mM Tris-HCl pH 7.5, 50 mM KCl, 1 mM MgCl2, 1 mM DTT, 0.1 mM EDTA, 10 nM oligo, 30 min RT, read at 25 C; Trp quenching: same buffer, 500 nM APE1, 20 C. The settings on record: protein: recombinant; tags: GST; label: 5'-6-FAM; parallel G4 (CD), prefolded in 50 mM KCl.

For data set [5], the target named is T1, APE1 WT. The data set can be described thus: tryptophan fluorescence quenching (Scatchard); 500 nM APE1, 50 mM KCl, 1 mM MgCl2, 20 C; FP: 50 mM Tris-HCl pH 7.5, 50 mM KCl, 1 mM MgCl2, 1 mM DTT, 0.1 mM EDTA, 10 nM oligo, 30 min RT, read at 25 C; Trp quenching: same buffer, 500 nM APE1, 20 C. The settings on record: protein: recombinant; parallel G4 (CD), prefolded in 50 mM KCl.

The target in data set [6] is T1, APE1 WT. The data set can be described thus: competition (fluorescence polarization; printed as EC50); 640 nM APE1, 10 nM 6-FAM G4-forming KRAS oligo as probe; FP: 50 mM Tris-HCl pH 7.5, 50 mM KCl, 1 mM MgCl2, 1 mM DTT, 0.1 mM EDTA, 10 nM oligo, 30 min RT, read at 25 C; Trp quenching: same buffer, 500 nM APE1, 20 C. The settings on record: protein: recombinant; parallel G4 (CD), prefolded in 50 mM KCl.

This note sets out measurements from publication PMC8990529.

T1 sequence (P27695 whole entry): as the sequence (P27695 whole entry H309A) above, with A309H counted along it
Sequence of APE1 NΔ42 (P27695 43-318, stated change not applied): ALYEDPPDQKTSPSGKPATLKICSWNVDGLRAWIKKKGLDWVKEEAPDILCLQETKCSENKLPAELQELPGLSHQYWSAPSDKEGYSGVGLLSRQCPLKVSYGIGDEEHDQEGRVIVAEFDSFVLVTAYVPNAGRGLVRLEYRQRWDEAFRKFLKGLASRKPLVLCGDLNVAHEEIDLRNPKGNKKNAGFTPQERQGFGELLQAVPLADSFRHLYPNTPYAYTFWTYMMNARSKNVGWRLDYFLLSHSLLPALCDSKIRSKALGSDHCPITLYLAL

As for `C[n+]1ccc(-c2c3nc(c(-c4cc[n+](C)cc4)c4ccc([nH]4)c(-c4cc[n+](C)cc4)c4nc(c(-c5cc[n+](C)cc5)c5ccc2[nH]5)C=C4)C=C3)cc1`, the Kd (in general, a measure of binding affinity in units of concentration) in data set [1] came out at 11 nM. On to “AGGGCGGTGTGGGAAGAGGGAAGAGGGGGAGG [G4-forming KRAS oligo (32R), 6-FAM]”, for which the Kd in data set [2] was determined as 0.5 nM.

B1: non-G4-forming KRAS oligo, 6-FAM (ssDNA)
DNA: AGTTCGGTGTGTTAAGAGTTAAGAGTTGGAGG
B1: the binding result in the data set with APE1 WT [3] is “no binding”.

B2: G4-forming KRAS oligo (32R), 6-FAM (structured_DNA)
DNA: AGGGCGGTGTGGGAAGAGGGAAGAGGGGGAGG
With B2, the Kd with APE1 WT [4] is 31 ± 3 nM; with APE1 H309A, 152 ± 25 nM; with APE1 NΔ42, 313 ± 12 nM. Moreover, the binding result with GST-APE1 1-42 was “no binding”.

B3: G4-forming KRAS oligo (32R), unlabeled (structured_DNA)
DNA: AGGGCGGTGTGGGAAGAGGGAAGAGGGGGAGG
Turning to B3, in the data set with APE1 WT [5], the Kd turned out to be 12 nM. In addition, in the data set with APE1 WT [6], the IC50 (usually the concentration that gives 50% inhibition) amounted to 2300 ± 1500 nM.
